Measurements as given in article PMC3653948, “PDZ Domain-Mediated Interactions of G Protein-Coupled Receptors with Postsynaptic Density Protein 95: Quantitative Characterization of Interactions” (PLoS ONE, 2013).
Values belong to the binder of their own block, whether it stands above or below them. Ends that are not written are not given here.

Experiments:
Details in all cases: both partners purified
[1] = molecular target: T1, PSD-95 PDZ2 (aa 155-249) (UniProt P78352 155-249); assay: SPR; PDZ domain immobilised by amine coupling (CM5 for PDZ1 and PDZ2, CM4 for PDZ3), peptides injected; Biacore X100, 25.0°C, HBS-EP+ (10 mM HEPES pH 7.4, 150 mM NaCl, 3 mM EDTA, 0.05% Surfactant P-20); 1 mM DTT for peptides with a cysteine; Kd from steady-state responses, 1:1 model with a linear component
T1 construct: postsynaptic density protein 95 (PSD-95), PDZ2, aa 155-249

[2] = molecular target: T2, PSD-95 PDZ1 (aa 61-151) (UniProt P78352 61-151); assay: as above
T2 construct: postsynaptic density protein 95 (PSD-95), PDZ1, aa 61-151

[3] = molecular target: PSD-95 PDZ1 (aa 61–151) (UniProt P78352 61-151); assay: fluorescence polarisation; competition: 25 nM Cy5-labeled probe and a constant concentration of PDZ protein corresponding to the K d of the probe, twofold dilution series of unlabeled peptide (typically 1–512 µM); 10 mM HEPES pH 7.4, 150 mM NaCl, 1% BSA; room temperature; K i calculated from the IC50
[4] = molecular target: T3, PSD-95 PDZ2 (aa 155–249) (UniProt P78352 155-249); assay: as above
T3 construct: postsynaptic density protein 95 (PSD-95), PDZ2, aa 155–249; also called isolated PDZ2

[5] = molecular target: T4, PSD-95 PDZ3 (aa 309–401) (UniProt P78352 309-401); assay: as above
T4 construct: postsynaptic density protein 95 (PSD-95), PDZ3, aa 309–401

[6] = molecular target: T2, PSD-95 PDZ1 (aa 61-151); assay: fluorescence polarisation; competition: 25 nM Cy5-labeled probe (Cy5-KIF1Bα for PDZ1, Cy5-GluN2B for PDZ2, Cy5-CRIPT for PDZ3), constant PDZ protein at the probe's Kd, twofold dilution series of unlabeled peptide (typically 1–512 µM); 10 mM HEPES pH 7.4, 150 mM NaCl, 1% BSA, room temperature; Ki calculated from IC50
[7] = molecular target: T1, PSD-95 PDZ2 (aa 155-249); assay: as above
[8] = molecular target: T5, PSD-95 PDZ3 (aa 309-401) (UniProt P78352 309-401); assay: as above
T5 construct: postsynaptic density protein 95 (PSD-95), PDZ3, aa 309-401

[9] = molecular target: T5, PSD-95 PDZ3 (aa 309-401); assay: SPR; PDZ domain immobilised by amine coupling (CM5 for PDZ1 and PDZ2, CM4 for PDZ3), peptides injected; Biacore X100, 25.0°C, HBS-EP+ (10 mM HEPES pH 7.4, 150 mM NaCl, 3 mM EDTA, 0.05% Surfactant P-20); 1 mM DTT for peptides with a cysteine; Kd from steady-state responses, 1:1 model with a linear component

Kd [1]: 2090 µM
B1: β2AR C-tail peptide (human) (peptide)
peptide: YDDRRNCSTNDSLL
notes: N-terminal linker; YDDR because the C-tail has no Tyr or Trp, by the rule of the methods; β2-adrenergic receptor, human, 10 C-terminal aa; source: synthetic peptide (Schafer-N)

Kd [2]: 630 µM
Kd [1]: 110 µM
B2: 5-HTR2A C-tail peptide (human) (peptide)
peptide: YDDRDGVNEKVSCV
notes: N-terminal linker; YDDR because the C-tail has no Tyr or Trp, by the rule of the methods; 5-hydroxytryptamine receptor 2A, human, 10 C-terminal aa; also called 5-hydroxytryptamine receptor 2A; source: synthetic peptide (Schafer-N)

Ki [3]: > 1000 µM
Ki [4]: 720 µM
Ki [5]: > 1000 µM
Binder: RNCSTNDSLL-OH (not fully specified) [β2-adrenergic receptor (β2AR) C-tail peptide, human]

Kd [2]: 2.2 µM
Kd [1]: 1.1 µM
Ki [6]: 7 µM
Ki [7]: 3.8 µM
Ki [8]: 14 µM
B3: KIF1Bα C-tail peptide (human), unlabeled (peptide)
peptide: YDDRNLKAGRETTV
notes: N-terminal linker (solubility, concentration determination); YDDR because the C-tail has no Tyr or Trp, by the rule of the methods; source: synthetic peptide (Schafer-N)

Kd [1]: 1.4 µM
Ki [6]: 29 µM
Ki [7]: 5.5 µM
Ki [8]: > 1000 µM
B4: GluN2B C-tail peptide (human), unlabeled (peptide)
peptide: YEKLSSIESDV
notes: No YDDR/DDR linker is told for this peptide; also called NR2B

Kd [9]: 240 µM
B5: SSTR3 C-tail peptide (human) (peptide)
peptide: DDRKSSTMRISYL
notes: N-terminal linker; DDR (Tyr omitted) because the C-tail contains Tyr, by the rule of the methods; somatostatin receptor 3, human, 10 C-terminal aa; source: synthetic peptide (Schafer-N)

Kd [2]: 120 µM
Kd [1]: 74 µM
Kd [9]: 2400 µM
B6: BAI1 C-tail peptide (human) (peptide)
peptide: YDDRQDIIDLQTEV
notes: N-terminal linker; YDDR because the C-tail has no Tyr or Trp, by the rule of the methods; BAI1 receptor, human, 10 C-terminal aa; also called BAI1 receptor; source: synthetic peptide (Schafer-N)

Kd [1]: 180 µM
Kd [9]: 400 µM
B7: β1AR C-tail peptide (human) (peptide)
peptide: YDDRRPGFASESKV
notes: N-terminal linker; YDDR because the C-tail has no Tyr or Trp, by the rule of the methods; β1-adrenergic receptor, human, 10 C-terminal aa; also called β1-adrenergic receptor; source: synthetic peptide (Schafer-N)

Kd [2]: 270 µM
B8: SSTR1 C-tail peptide (mouse) (peptide)
peptide: YDDRGTCASRISTL
notes: N-terminal linker; YDDR because the C-tail has no Tyr or Trp, by the rule of the methods; somatostatin receptor 1, mouse, 10 C-terminal aa; also called mSSTR1; source: synthetic peptide (Schafer-N)

Kd [2]: 160 µM
Kd [1]: 62 µM
Kd [9]: 780 µM
B9: 5-HTR2C C-tail peptide (human) (peptide)
peptide: YDDRSVVSERISSV
notes: N-terminal linker; YDDR because the C-tail has no Tyr or Trp, by the rule of the methods; 5-hydroxytryptamine receptor 2C, human, 10 C-terminal aa; source: synthetic peptide (Schafer-N)

Ki [3]: 830 µM
Ki [4]: > 1000 µM
Ki [5]: > 1000 µM
Binder: RDYKQSSSTL-OH (not fully specified) [metabotropic glutamate receptor mGlu1(a) C-tail peptide, human]

Kd [2]: 84 µM
Kd [1]: 76 µM
B10: SSTR1 C-tail peptide (human) (peptide)
peptide: YDDRGTCTSRITTL
notes: N-terminal linker; YDDR because the C-tail has no Tyr or Trp, by the rule of the methods; somatostatin receptor 1, human, 10 C-terminal aa; also called hSSTR1; source: synthetic peptide (Schafer-N)

Ki [3]: 610 µM
Ki [4]: > 1000 µM
Ki [5]: > 1000 µM
Binder: KYVSYNNLVI-OH (not fully specified) [metabotropic glutamate receptor mGlu7(a) C-tail peptide, human]

Kd [9]: 1.5 µM
Ki [8]: 2.9 µM
B11: CRIPT C-tail peptide (human), unlabeled (peptide)
peptide: LDTKNYKQTSV
notes: No YDDR/DDR linker is told for this peptide
